According to article PMC11696221 (Nature Communications, 2025):
Where a chain is given by its changes, count along the chain named.

How the values were obtained:
[1] = target: T1, wild-type KaiC with an N-terminal FLAG epitope (cyanobacteria, UniProt Q79PF4 1-519); test: pull-down
T1 sequence: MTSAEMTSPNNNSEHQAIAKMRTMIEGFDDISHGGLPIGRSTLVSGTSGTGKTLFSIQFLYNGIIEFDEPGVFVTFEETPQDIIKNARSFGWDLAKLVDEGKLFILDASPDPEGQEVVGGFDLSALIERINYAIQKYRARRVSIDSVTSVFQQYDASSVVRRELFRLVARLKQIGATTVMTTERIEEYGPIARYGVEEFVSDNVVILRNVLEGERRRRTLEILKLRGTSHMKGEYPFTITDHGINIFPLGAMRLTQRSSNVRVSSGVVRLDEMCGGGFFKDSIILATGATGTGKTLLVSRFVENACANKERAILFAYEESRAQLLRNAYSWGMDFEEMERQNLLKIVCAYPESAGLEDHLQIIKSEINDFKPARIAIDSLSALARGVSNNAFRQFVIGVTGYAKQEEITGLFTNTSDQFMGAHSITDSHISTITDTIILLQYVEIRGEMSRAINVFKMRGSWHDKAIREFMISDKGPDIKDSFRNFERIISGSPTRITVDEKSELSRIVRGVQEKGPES

[2] = target: T2, pS KaiC (KaiC-EA; S431E, T432A) (cyanobacteria, UniProt Q79PF4 1-519, S431E | T432A); test: pull-down
T2 sequence: T1 sequence with S431E, T432A

[3] = target: T1, wild-type KaiC with an N-terminal FLAG …; test: fluorescence polarisation
[4] = target: T3, KaiC, wild type (no FLAG epitope) (cyanobacteria, UniProt Q79PF4 1-519); test: fluorescence polarisation
T3 sequence: T1 sequence

B1: biotinylated KaiB (natural protein)
chain: MSPRKTYILKLYVAGNTPNSVRALKTLKNILEVEFQGVYALKVIDVLKNPQLAEEDKILATPTLAKVLPLPVRRIIGDLSDREKVLIGLDLLYGELQDSDDF
modifications: biotin (amine-reactive EZ-Link-Sulfo-NHS-LC-Biotin, 50 x molar excess; sites not determined)
- binding result [1]: binds
- binding result [2]: binds

B2: FITC-labeled KaiB K25C (natural protein)
chain: B1 chain with K25C
modifications: FITC label
- binding result [3]: binds
- binding result [4]: binds
